Each substance was assayed against HLA-A*02:01 (Homo sapiens, UniProt P04439, D140Y/D185E/D98H/E176V/E277Q/G131W/G231S/I119V/I121R/I166T/I218V/L300P/L318F/N151K/N90K/P208A/P217A/Q86G/Q94H/R138H/R169H/T345S) (assay: MHC binding assay (UV-ligand exchange, beta2m ELISA)). Conditions: binding to HLA-A*02:01, β2m ELISA.
From the text: Candidate peptides for T cell based therapies according to the present invention were further tested for their MHC binding capacity (affinity). The individual peptide-MHC complexes were produced by UV-ligand exchange, where a UV-sensitive peptide is cleaved upon UV-irradiation, and exchanged with the peptide of interest as analyzed. Only peptide candidates that can effectively bind and stabilize the peptide-receptive MHC molecules prevent dissociation of the MHC complexes. To determine the yield of the exchange reaction, an ELISA was performed based on the detection of the light chain (β2m) of stabilized MHC complexes. The assay was performed as generally described in Rodenko et al. (Rodenko et al., 2006).
96 well MAXISorp plates (NUNC) were coated over night with 2 ug/ml streptavidin in PBS at room temperature, washed 4× and blocked for 1 h at 37° C. in 2% BSA containing blocking buffer. Refolded HLA-A*02:01/MLA-001 monomers served as standards, covering the range of 15-500 ng/ml. Peptide-MHC monomers of the UV-exchange reaction were diluted 100 fold in blocking buffer. Samples were incubated for 1 h at 37° C., washed four times, incubated with 2 ug/ml HRP conjugated anti-82m for 1 h at 37° C., washed again and detected with TMB solution that is stopped with […]. Absorption was measured at 450 nm. Candidate peptides that show a high exchange yield (preferably higher than 50%, most preferred higher than 75%) are generally preferred for a generation and production of antibodies or fragments thereof, and/or T cell receptors or fragments thereof, as they show sufficient avidity to the MHC molecules and prevent dissociation of the MHC complexes.

Substance	Peptide exchange (MHC class I binding score, peptide exchange yield)
87 (KLLSLLEEA; listed as Homo sapiens) [compound 87]	+++ (≥50 = +++)
88 (LLLPLELSLA; listed as Homo sapiens) [compound 88]	+++ (≥50 = +++)
90 (AILNVDEKNQV; listed as Homo sapiens) [compound 90]	++ (≥20% = ++)
91 (LLPSIFLMV; listed as Homo sapiens) [compound 91]	++ (≥20% = ++)
92 (RLFEEVLGV; listed as Homo sapiens) [compound 92]	++++ (≥75% = ++++)
93 (RLYGYFHDA; listed as Homo sapiens) [compound 93]	++ (≥20% = ++)
94 (YLDEVAFML; listed as Homo sapiens) [compound 94]	+++ (≥50 = +++)
95 (KLIDEDEPLFL; listed as Homo sapiens) [compound 95]	+++ (≥50 = +++)
96 (ALDTTRHEL; listed as Homo sapiens) [compound 96]	++ (≥20% = ++)
98 (FVQEKIPEL; listed as Homo sapiens) [compound 98]	+++ (≥50 = +++)
99 (TLFGIQLTEA; listed as Homo sapiens) [compound 99]	+++ (≥50 = +++)
100 (ALQSFEFRV; listed as Homo sapiens) [compound 100]	+++ (≥50 = +++)
103 (YLADTVQKL; listed as Homo sapiens) [compound 103]	++ (≥20% = ++)
105 (AMLASQTEA; listed as Homo sapiens) [compound 105]	++ (≥20% = ++)
106 (VLLGSVVIFA; listed as Homo sapiens) [compound 106]	++ (≥20% = ++)
107 (RVLPGQAVTGV; listed as Homo sapiens) [compound 107]	++ (≥20% = ++)
108 (FIANLPPELKA; listed as Homo sapiens) [compound 108]	+++ (≥50 = +++)
109 (ILGSFELQL; listed as Homo sapiens) [compound 109]	+++ (≥50 = +++)

Substance	Peptide exchange (MHC class I binding score, peptide exchange yield)
110 (QIQGQVSEV; listed as Homo sapiens) [compound 110]	++ (≥20% = ++)
111 (AQLEGKLVSI; listed as Homo sapiens) [compound 111]	+++ (≥50 = +++)
112 (ILAQDVAQL; listed as Homo sapiens) [compound 112]	+++ (≥50 = +++)
113 (FLFLKEVKV; listed as Homo sapiens) [compound 113]	++ (≥20% = ++)
114 (LLFPSDVQTL; listed as Homo sapiens) [compound 114]	++ (≥20% = ++)
115 (ILHGEVNKV; listed as Homo sapiens) [compound 115]	++ (≥20% = ++)
116 (ALLSSVAEA; listed as Homo sapiens) [compound 116]	++ (≥20% = ++)
117 (TLLEGISRA; listed as Homo sapiens) [compound 117]	++ (≥20% = ++)
119 (SLIEESEEL; listed as Homo sapiens) [compound 119]	++ (≥20% = ++)
122 (SIIDTELKV; listed as Homo sapiens) [compound 122]	+++ (≥50 = +++)
123 (QTAPEEAFIKL; listed as Homo sapiens) [compound 123]	+ (≥10% = +)
124 (ALLLRLFTI; listed as Homo sapiens) [compound 124]	++ (≥20% = ++)
125 (AALEVLAEV; listed as Homo sapiens) [compound 125]	+++ (≥50 = +++)
126 (QLREAFEQL; listed as Homo sapiens) [compound 126]	+++ (≥50 = +++)
128 (SILTNISEV; listed as Homo sapiens) [compound 128]	++ (≥20% = ++)
129 (KMASKVTQV; listed as Homo sapiens) [compound 129]	++ (≥20% = ++)
130 (QLYGSAITL; listed as Homo sapiens) [compound 130]	+++ (≥50 = +++)

Other lines, results leading:

Peptide exchange (MHC class I binding score, peptide exchange yield)	Substance
+++ (≥50 = +++)	131 (SLYPHFTLL; listed as Homo sapiens) [compound 131]
+++ (≥50 = +++)	132 (ALLNNVIEV; listed as Homo sapiens) [compound 132]
++ (≥20% = ++)	133 (FLDGRPLTL; listed as Homo sapiens) [compound 133]
++ (≥20% = ++)	134 (SLYKSFLQL; listed as Homo sapiens) [compound 134]
+++ (≥50 = +++)	136 (LLWDAPAKC; listed as Homo sapiens) [compound 136]
++ (≥20% = ++)	137 (KLIYKDLVSV; listed as Homo sapiens) [compound 137]
++ (≥20% = ++)	138 (GIINKLVTV; listed as Homo sapiens) [compound 138]
+++ (≥50 = +++)	139 (IILENIQSL; listed as Homo sapiens) [compound 139]
+++ (≥50 = +++)	140 (FLDSQITTV; listed as Homo sapiens) [compound 140]
++ (≥20% = ++)	141 (NIDINNNEL; listed as Homo sapiens) [compound 141]
++ (≥20% = ++)	142 (LLDAAHASI; listed as Homo sapiens) [compound 142]
+++ (≥50 = +++)	143 (MLWESIMRV; listed as Homo sapiens) [compound 143]
+++ (≥50 = +++)	144 (FLISQTPLL; listed as Homo sapiens) [compound 144]
+++ (≥50 = +++)	145 (ALEEKLENV; listed as Homo sapiens) [compound 145]
++ (≥20% = ++)	146 (VVAAHLAGA; listed as Homo sapiens) [compound 146]
+++ (≥50 = +++)	147 (GLLSALENV; listed as Homo sapiens) [compound 147]
